Source: the supplement of paper PMC10567573

B1: TMEM40 (parent)
chain: YGETDFHKQDGKAGLFSQEQYERN

Variants of: B1
Test: protein stability index of a GFP-peptide fusion (GPS, HEK-293T) (PSI 1-6); higher = more stable
Details: c terminus: a fixed tail appended
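Also: lentivirally expressed fusions sorted by FACS into six bins by GFP to DsRed ratio, PSI derived from sequencing read proportions per bin multiplied by bin number.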

Variant | protein stability index
YGETDFHKQDGKANLFSQEQYERN [G14N] | 4.47
YGETDFHKQDGKAWLFSQEQYERN [G14W] | 2.72
YGETDFHKQDGKAFLFSQEQYERN [G14F] | 3.69
YGETDFHKQDGKASLFSQEQYERN [G14S] | 4.68
YGETDFHKQDGKAMLFSQEQYERN [G14M] | 4.45
YGETDFHKQDGKAELFSQEQYERN [G14E] | 4.63
YGETDFHKQDGKAKLFSQEQYERN [G14K] | 4.32
YGETDFHKQDGKAQLFSQEQYERN [G14Q] | 4.29
YGETDFHKQDGKACLFSQEQYERN [G14C] | 4.18
YGETDFHKQDGKATLFSQEQYERN [G14T] | 4.06
YGETDFHKQDGKARLFSQEQYERN [G14R] | 3.84
YGETDFHKQDGKAYLFSQEQYERN [G14Y] | 3.74
YGETDFHKQDGKALLFSQEQYERN [G14L] | 3.86
YGETDFHKQDGKAPLFSQEQYERN [G14P] | 4.34
YGETDFHKQDGKADLFSQEQYERN [G14D] | 4.79
YGETDFHKQDGKAVLFSQEQYERN [G14V] | 4.09
YGETDFHKQDGKAILFSQEQYERN [G14I] | 3.93
YGETDFHKQDGKAALFSQEQYERN [G14A] | 4.02
YGETDFHKQDGKAHLFSQEQYERN [G14H] | 4.06
YGETDFHKQDGKAGLFSDEQYERN [Q18D] | 4.5
YGETDFHKQDGKAGLFSMEQYERN [Q18M] | 3.23
YGETDFHKQDGKAGLFSSEQYERN [Q18S] | 3.3
YGETDFHKQDGKAGLFSAEQYERN [Q18A] | 3.66
YGETDFHKQDGKAGLFSCEQYERN [Q18C] | 2.82

Variant | protein stability index
YGETDFHKQDGKAGLFSWEQYERN [Q18W] | 3.45
YGETDFHKQDGKAGLFSLEQYERN [Q18L] | 3.81
YGETDFHKQDGKAGLFSPEQYERN [Q18P] | 2.05
YGETDFHKQDGKAGLFSREQYERN [Q18R] | 3.83
YGETDFHKQDGKAGLFSYEQYERN [Q18Y] | 3.4
YGETDFHKQDGKAGLFSIEQYERN [Q18I] | 3.58
YGETDFHKQDGKAGLFSTEQYERN [Q18T] | 3.41
YGETDFHKQDGKAGLFSVEQYERN [Q18V] | 3.36
YGETDFHKQDGKAGLFSGEQYERN [Q18G] | 4.26
YGETDFHKQDGKAGLFSFEQYERN [Q18F] | 3.65
YGETDFHKQDGKAGLFSNEQYERN [Q18N] | 3.66
YGETDFHKQDGKAGLFSEEQYERN [Q18E] | 4.6
YGETDFHKQDGKAGLFSKEQYERN [Q18K] | 4.55
YGETDFHKQDGKAGLFSHEQYERN [Q18H] | 4.29
YGETDFHKQDGKAGLFSQEQYIRN [E22I] | 3.29
YGETDFHKQDGKAGLFSQEQYARN [E22A] | 3.91
YGETDFHKQDGKAGLFSQEQYDRN [E22D] | 4.03
YGETDFHKQDGKAGLFSQEQYFRN [E22F] | 3.19
YGETDFHKQDGKAGLFSQEQYHRN [E22H] | 3.34
YGETDFHKQDGKAGLFSQEQYCRN [E22C] | 3.61
YGETDFHKQDGKAGLFSQEQYGRN [E22G] | 3.83
YGETDFHKQDGKAGQFSQEQYERN [L15Q] | 4.51
YGETDFHKQDGKAGMFSQEQYERN [L15M] | 4.27
YGETDFHKQDGKAGGFSQEQYERN [L15G] | 4.73

Variant | protein stability index
YGETDFHKQDGKAGCFSQEQYERN [L15C] | 4.38
YGETDFHKQDGKAGWFSQEQYERN [L15W] | 3.8
YGETDFHKQDGKAGSFSQEQYERN [L15S] | 5.04
YGETDFHKQDGKAGNFSQEQYERN [L15N] | 4.5
YGETDFHKQDGKAGAFSQEQYERN [L15A] | 4.39
YGETDFHKQDGKAGVFSQEQYERN [L15V] | 4.18
YGETDFHKQDGKAGRFSQEQYERN [L15R] | 4.43
YGETDFHKQDGKAGYFSQEQYERN [L15Y] | 3.84
YGETDFHKQDGKAGTFSQEQYERN [L15T] | 4.55
YGETDFHKQDGKAGPFSQEQYERN [L15P] | 4.89
YGETDFHKQDGKAGEFSQEQYERN [L15E] | 4.66
YGETDFHKQDGKAGIFSQEQYERN [L15I] | 4.08
YGETDFHKQDGKAGKFSQEQYERN [L15K] | 4.49
YGETDFHKQDGKAGDFSQEQYERN [L15D] | 5.02
YGETDFHKQDGKAGHFSQEQYERN [L15H] | 4.02
YGETDFHKQDGKAGFFSQEQYERN [L15F] | 3.32
YGETDFHKQDGKAGLFRQEQYERN [S17R] | 4.27
YGETDFHKQDGKAGLFKQEQYERN [S17K] | 3.44
YGETDFHKQDGKAGLFIQEQYERN [S17I] | 3.81
YGETDFHKQDGKAGLFTQEQYERN [S17T] | 3.81
YGETDFHKQDGKAGLFDQEQYERN [S17D] | 3.98
YGETDFHKQDGKAGLFNQEQYERN [S17N] | 4.52
YGETDFHKQDGKAGLFWQEQYERN [S17W] | 1.97
YGETDFHKQDGKAGLFPQEQYERN [S17P] | 4.03

Variant | protein stability index
YGETDFHKQDGKAGLFEQEQYERN [S17E] | 4.51
YGETDFHKQDGKAGLFMQEQYERN [S17M] | 3.97
YGETDFHKQDGKAGLFHQEQYERN [S17H] | 3.54
YGETDFHKQDGKAGLFGQEQYERN [S17G] | 3.94
YGETDFHKQDGKAGLFVQEQYERN [S17V] | 4.08
YGETDFHKQDGKAGLFFQEQYERN [S17F] | 3.1
YGETDFHKQDGKAGLFQQEQYERN [S17Q] | 4.48
YGETDFHKQDGKAGLFLQEQYERN [S17L] | 3.35
YGETDFHKQDGKAGLFCQEQYERN [S17C] | 4.07
YGETDFHKQDGKAGLFYQEQYERN [S17Y] | 3.66
YGETDFHKQDGKAGLFAQEQYERN [S17A] | 3.79
YGETDFHKQDGMAGLFSQEQYERN [K12M] | 4.14
YGETDFHKQDGWAGLFSQEQYERN [K12W] | 3.21
YGETDFHKQDGPAGLFSQEQYERN [K12P] | 4.38
YGETDFHKQDGYAGLFSQEQYERN [K12Y] | 3.99
YGETDFHKQDGQAGLFSQEQYERN [K12Q] | 4.21
YGETDFHKQDGSAGLFSQEQYERN [K12S] | 4.86
YGETDFHKQDGVAGLFSQEQYERN [K12V] | 4.49
YGETDFHKQDGNAGLFSQEQYERN [K12N] | 4.78
YGETDFHKQDGRAGLFSQEQYERN [K12R] | 4.1
YGETDFHKQDGTAGLFSQEQYERN [K12T] | 4.5
YGETDFHKQDGKHGLFSQEQYERN [A13H] | 4.21
